Data on 3 molecules can be found in US11339371B2, “Method for inducing pluripotent stem cells to differentiate into ventricular myocytes in vitro” (Institute of Biophysics, Chinese Academy of Sciences, priority 2012, dated 2022).

Type in all cases: cell-based, human
In assay [1] the test system is MLC-2v-expressing VMs among differentiated CMs. As to the kind of experiment: flow cytometry of MLC-2v-expressing cells among cTNT-expressing CMs at day 90. The following applies: for proportion of MLC-2v-expressing cells among differentiated CMs: day 90. Here is the method:
(§1) In some embodiments, from about day 14 of differentiation, growth factor-free medium is used and replaced every 3 days. After about 60 to about 90 days of differentiation, the percentage of VMs in the differentiated CMs was determined with the analysis of APs of CMs (recorded by the patch clamp technique), calcium imagining studies, and/or MLC-2v and cardiac troponin T (cTNT) double immunofluorescence staining for flow cytometric analysis.
(§2) RA represents 1 μM retinoic acid; B represents BMP4; NVa represents vitamin A-free medium; N represents noggin; and numbers represent the concentrations (Unit is ng/mL). The RARγ concentration is 0.1 μM.
(§3) 5) As mentioned above, during early differentiation of CMs, IRX-4 is an important gene with specific expression in differentiated VMs. As CMs mature, VMs begin to specifically express the MLC-2v gene. Thus, the MLC-2v expression level was measured in differentiated cells at day 90 of culture after treatment with various growth factors. […] Moreover, flow cytometry was performed to determine the proportion of MLC-2v-expressing VMs among differentiated CMs (cTNT-expressing cells) at day 90. […] The most classical method to identify the subtypes of CMs is to measure the APs of the CMs. The proportions of cells with atrial-, ventricular-, and nodal-like APs among differentiated CMs were analyzed after treatment with retinoic acid and various doses of BMP4 (FIG. 8).
Background: A flow cytometer gives signals particle by particle.

The subject of the next assay is BMP2. In words: quantitative RT-PCR of BMP2 expression at day 6 of differentiation. The following applies: added with DKK1, vitamin A-free medium. The text has this:
The results of quantitative RT-PCR are indicated as relative values compared with those of GADPH. NVa represents vitamin A-free medium.
Additionally, in vitamin A-containing medium, early specific IRX-4 expression in VMs was activated by addition of DKK1 and antagonists of RARα and RAR. This indicated induced differentiation of stem cells into VMs. Because retinoic acid has three RARs receptors (RARα, RARβ, and RARγ), simultaneous inhibition of RARα and RARβ in the presence of vitamin A or retinoic acid has a similar mechanism and effect as that of independent activation of RARγ alone.

The test system of assay [2] is differentiated CMs. In words: action potential classification of differentiated CMs (patch clamp). The settings on record: for proportion of CMs with ventricular-like APs: treatment alone during middle stage, differentiated CMs at 90 days. On the procedure:
as §1, §2, §3
In general terms: Patch clamp records ionic current or voltage across a cell membrane.

A further assay has as its system IRX-4. As to the kind of experiment: quantitative RT-PCR of ventricle-specific early marker gene IRX-4 at day 14 of differentiation. The settings on record: for IRX-4 expression level (FIG. 2A): added to the cultures at various concentrations, relative to GADPH. The text has this: T-Smad1/5/8 represents total Smad1/5/8 proteins. β-actin served as an internal loading control. The histogram in FIG. 1C presents the experimental results of quantitative RT-PCR analysis of IRX-4 gene expression levels at 14 days of differentiation. […] Connected line indicates the cardiac differentiation efficiency of the stem cells under the corresponding inductive conditions. N represents noggin, B represents BMP4; NVa represents differentiated cells cultured in vitamin A-free medium; RA represents retinoic acid; and numbers represent the concentrations (Unit for BMP4 is ng/mL). Data are expressed as relative values compared with the expression level of glyceraldehyde-3-phosphate dehydrogenase (GADPH).
FIG. 2 presents quantitative RT-PCR analysis of the expression levels of the ventricle-specific early marker gene IRX-4 at day 14 in differentiated cultures with various treatments. […] However, the expression level is reduced by addition of a BMP antagonist, noggin. […] N represents noggin; B represents BMP4, NVa represents differentiated cells treated in vitamin A-free medium; RA represents retinoic acid; and numbers represents the concentrations (Unit is ng/mL). The results of quantitative RT-PCR are indicated as relative values compared with the expression levels of GADPH.
RA represents retinoic acid; RAi represents a retinoic acid inhibitor, BMS189453; NVa represents vitamin A-free medium; The RAR pan-antagonist is BMS493. The results of quantitative RT-PCR are expressed as relative values compared with cTNT expression
2) The role of the BMP pathway in directed differentiation of CM subtypes was analyzed further during cardiac differentiation of stem cells. IRX-4 is a marker gene expressed during early differentiation of VMs. Thus, the IRX-4 expression level was measured to further study the role of the BMP pathway in differentiation of CM subtypes.

Assay [3] relates to differentiated CMs. In words: calcium imaging of differentiated CMs by confocal laser scanning microscopy at 60-90 days. The following applies: 60-90 days of differentiation. The text has this: FIG. 5 presents images from confocal laser scanning microscopy and simultaneous recordings of APs of calcium activity in differentiated CMs and the classification of the differentiated CMs according to the specific calcium activity patterns in the various types of CMs. […] FIG. 5B presents the proportions of CMs with Ca^2+ sparks, Ca^2+ transients, and Ca^2+ oscillations in different treatments as classified by calcium signaling patterns of the various subtypes of CMs in A. The vertical axis represents the proportions of CMs with the three different calcium activities; RA represents 1 μM retinoic acid; Letter B represents BMP4; NVa represents vitamin A-free medium; N represents noggin; and numbers represent the concentrations (ng/mL).
4) To verify the role of the BMP pathway in regulating the differentiation of VMs from stem cells, calcium activities of cardiomyocytes were recorded with confocal laser scanning microscopy at 60-90 days of differentiation. Calcium activity in VMs clearly differs from that in AMs and nodel cells. Calcium activity in VMs has a higher imaging frequency, known as Ca^+ sparks. […] Thus, comparing the image pattern of calcium activities in CMs is an effective method to distinguish VMs from AMs and nodel cells.

In another assay the test system is MLC-2v. As to the kind of experiment: western blot of MLC-2v expression in differentiated cells at day 90. Here is the method: FIG. 4B presents the results of double immunofluorescence staining of cTNT and MLC-2v in CMs at day 90 of differentiation after retinoic acid, BMP4, and noggin treatments. Letter B in the figures represents BMP4, NVa represents differentiated cells cultured in vitamin A-free medium; RA represents 1 μM retinoic acid; and numbers represent the concentrations (ng/mL).
as §3
On the technique in general: A western blot detects proteins with antibodies after separation by electrophoresis.

For the molecule `CC1(C)CCC(C)(C)c2cc([C@@H](O)C(=O)Nc3ccc(C(=O)O)cc3F)ccc21` [RARγ, reference compound], in assay [1] (90 days of differentiation, 0.1 μM, vitamin A-free medium), the “proportion of MLC-2v-expressing cardiomyocytes in cardiomyocytes population (cTNT-expressing cells)” value was “up to 80%”. In addition, the BMP2 expression entry with BMP2 is listed as “high expression”. In addition, in the assay with differentiated CMs [2], the “proportion of CMs with ventricular-like APs” value amounted to 92%. Moreover, the “ventricle-specific IRX-4 expression” value in the assay with IRX-4 (added along with DKK1 during middle stage of cardiac differentiation, vitamin A-free medium, relative to cTNT) is on record as “high expression”.

B1: BMP4: bone morphogenetic protein, growth factor activating Smad1/5/8 signaling; purchased from R&D systems (protein, UniProt P12644 293-408, looked up)
Bone morphogenetic protein 4: SPKHHSQRARKKNKNCRRHSLYVDFSDVGWNDWIVAPPGYQAFYCHGDCPFPLADHLNSTNHAIVQTLVNSVNSSIPKACCVPTELSAISMLYLDEYDKVVLKNYQEMVVEGCGCR
For B1, the “proportion of MLC-2v-expressing cells among differentiated CMs” value in assay [1] (BMP4 added to cells after retinoic acid treatment) is “effectively increased”; in assay [1] (BMP4 treatment alone), “highest proportion”. The “proportion of cells with Ca+ sparks among differentiated CMs” value in the assay on differentiated CMs [3] (retinoic acid plus increasing BMP4) was “increased with increasing concentrations of BMP4”. For the same molecule, the “proportion of cells with Ca+ transients among differentiated CMs” value in the assay on differentiated CMs [3] (retinoic acid treatment, with or without BMP4) was “decreased with increasing concentrations of BMP4”. Further, the “proportion of cells with ventricular-like APs” value with differentiated CMs [2] (differentiated CMs after retinoic acid treatment, increasing doses of BMP4) is on record as “increased significantly”. In addition, the “proportion of CMs with ventricular-like APs” value with differentiated CMs [2] is reported as “more than 90%”. For the same molecule, the “IRX-4 expression level in retinoic acid-treated culture” value in the assay with IRX-4 (added simultaneously with 1 μM retinoic acid, day 5 to day 8, various doses) is reported as “increased correspondingly”. Further, the “IRX-4 expression level (FIG. 2A)” value with IRX-4 (day 14) is on record as “elevated with increasing concentrations of BMP4”. Further, the “MLC-2v protein expression level” value with MLC-2v was “increased with increasing concentrations of BMP4”.

B2: noggin: BMP2/4 pathway inhibitor (BMP antagonist); purchased from R&D systems (protein, UniProt Q13253 28-232, looked up)
Noggin: QHYLHIRPAPSDNLPLVDLIEHPDPIFDPKEKDLNETLLRSLLGGHYDPGFMATSPPEDRPGGGGGAAGGAEDLAELDQLLRQRPSGAMPSEIKGLEFSEGLAQGKKQRLSKKLRRKLQMWLWSQTFCPVLYAWNDLGSRFWPRYVKVGSCFSKRSCSVPEGMVCKPSKSVHLTVLRWRCQRRGGQRCGWIPIQYPIISECKCSC
For the molecule B2, the “IRX-4 expression level (FIG. 2A)” value in the assay on IRX-4 (day 14) is given as “reduced”. The “elevation of the IRX-4 expression level by BMP4 in the presence of retinoic acid (FIG. 2D)” value with IRX-4 (increasing concentrations of noggin, day 14) was “reduced with additions of increasing concentrations of noggin”. In the assay on IRX-4 (vitamin A-free medium, added day 5 to day 8 of differentiation, 300, 600, 1200 ng/mL), the IRX-4 expression level entry is on record as “effectively reduced”.
